How the values were obtained:
[1] = target: T1, mouse Fcγ receptor II extracellular domain with C-terminal His tag (mouse, UniProt P08101 30-210); test: SPR (Biacore) kinetics, antibody captured on Protein L, mFcγR as analyte, 1:1 Langmuir model
T1 construct: extracellular domain; also called mFcγRII; mFcgRII; not shown: His tag at the C terminus
T1 sequence (looked up): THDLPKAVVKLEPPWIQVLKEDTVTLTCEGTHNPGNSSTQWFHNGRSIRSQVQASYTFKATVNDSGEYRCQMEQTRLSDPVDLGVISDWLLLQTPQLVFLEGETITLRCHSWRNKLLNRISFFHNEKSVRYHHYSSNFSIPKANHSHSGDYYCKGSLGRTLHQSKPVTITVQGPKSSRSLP

[2] = target: T2, mouse Fcγ receptor III extracellular domain with C-terminal His tag (mouse, UniProt P08508 31-215); test: as above
T2 construct: extracellular domain; also called mFcγRIII; not shown: His tag at the C terminus
T2 sequence (looked up): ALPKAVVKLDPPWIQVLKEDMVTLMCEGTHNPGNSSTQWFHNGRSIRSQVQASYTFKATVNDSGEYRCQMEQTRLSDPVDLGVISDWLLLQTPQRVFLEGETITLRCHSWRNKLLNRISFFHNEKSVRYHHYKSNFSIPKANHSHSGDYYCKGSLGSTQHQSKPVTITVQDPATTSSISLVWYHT

[3] = target: T1, mouse Fcγ receptor II extracellular …; test: SPR (Biacore); against naturally-occurring mIgG1 (H237-mIgG1/MRAL-k0)
Protocol: (§1) The interaction between each modified antibody and the Fcγ receptor prepared as mentioned above was analyzed using Biacore T100 (GE Healthcare), Biacore T200 (GE Healthcare), Biacore A100, and Biacore 4000. The running buffer used was HBS-EP+(GE Healthcare) and the measurement temperature was set to 25° C. The chip used was: a Series S Sensor Chip CM5 (GE Healthcare) or Series S Sensor Chip CM4 (GE Healthcare) to which Protein L (ACTIGEN or BioVision) was immobilized by the amine coupling method. Antibodies of interest were captured onto these sensor chips, and mFcγR diluted with the running buffer was allowed to interact with them. The amount bound by the antibodies was measured and compared between the antibodies. However, since the amount of mFcγR bound depends on the amount of the captured antibody, the comparison was carried out on corrected values obtained by dividing the amount of bound mFcγR by the amount of each antibody captured. Furthermore, 10 mM glycine-HCl, pH 1.5 was reacted to wash out the captured antibody from the sensor chips, and the sensor chip was regenerated and used repeatedly. Kinetic analyses for calculating the KD values of each altered antibody to FcγR were performed according to the method below. […] From those values, the dissociation constant KD (mol/L) was determined.

[4] = target: T2, mouse Fcγ receptor III extracellular …; test: as above
Protocol: as §1

B1: H237-MB492/MRAL-k0 (antibody, mouse IgG1, kappa)
heavy: QVQLQESGPGLVKPSETLSLTCAVSGHSISHDHAWSWVRQPPGEGLEWIGFISYSGITNYNPSLQGRVTISRDNSKNTLYLQMNSLRAEDTAVYYCARSLARTTAMDYWGEGTLVTVSSAKTTPPSVYPLAPGSAAQTNSMVTLGCLVKGYFPEPVTVTWNSGSLSSGVHTFPAVLQSDLYTLSSSVTVPSSTWPSETVTCNVAHPASSTKVDKKIVPRDCGCKPCICEPNEVEDVFIFPPKPKDVLTITLTPKVTCVVVDISKDDPEVQFSWFVDDVEVHTAQTQPREEQFNSTFRSVSELPIMHQDWLNGKEFKCRVDSAAFPAPIEKTISKTKGRPKAPQVYTIPPPKEQMAKDKVSLTCMITDFFPEDITVEWQWNGQPAENYKNTQPIMDTDGSYFVYSKLNVQKSNWEAGNTFTCSVLHEGLHNHHTEKSLSHSPGK
light: not shown
notes: Mouse IgG1 constant region variant MB492 (T230E, V231P, P232N, S238E, S239D, N324D, as described for 1D8VH-MB492); copies: 2 + 2
In the case of B1, the Kd [1] is reported as 0.338 nM, the Kd [2] is reported as 25.8 nM and the Relative binding activity [3] is reported as 622 fold (mIgG1 = 1). The Relative binding activity [4] was 10.9 fold (mIgG1 = 1).
